The results in this text go back to patent US20140080757A1 (ZEALAND PHARMA A S, published 2014).

Numbered stars: 1 amine (or outer) side, 2 acyl side, 3 side chain; on linkers, the order of the positions; unused ones are H or OH. Square brackets hold non-standard residues; d marks the D form. Side chains are listed from the residue outwards. * marks the point of attachment. γGlu = O=C(O)[C@H](CCC(=O)[*:2])N[*:1]; Palmitoyl = CCCCCCCCCCCCCCCC(=O)*; Aib = CC(C)(N)C(=O)O

To fix the notation:
T1: endogenous GLP-1 receptor of a murine insulinoma cell line (murine, UniProt O35659 22-463)
T1 sequence (looked up): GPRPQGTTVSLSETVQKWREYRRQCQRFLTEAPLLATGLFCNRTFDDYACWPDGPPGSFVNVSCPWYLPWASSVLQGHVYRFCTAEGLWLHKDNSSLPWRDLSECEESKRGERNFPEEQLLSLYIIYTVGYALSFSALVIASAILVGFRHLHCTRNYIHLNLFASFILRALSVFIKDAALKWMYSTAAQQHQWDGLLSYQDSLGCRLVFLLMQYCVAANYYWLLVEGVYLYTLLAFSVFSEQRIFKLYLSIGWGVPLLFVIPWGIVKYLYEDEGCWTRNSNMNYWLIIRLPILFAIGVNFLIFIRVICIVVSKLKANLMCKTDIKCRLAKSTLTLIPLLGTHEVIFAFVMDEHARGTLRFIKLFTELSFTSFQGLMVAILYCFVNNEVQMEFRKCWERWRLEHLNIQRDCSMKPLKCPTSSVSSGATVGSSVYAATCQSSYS

B1: Compound 3 (peptide)
peptide: H-HSQGTFTSDYSKYLDSK([γGlu-Palmitoyl])AAHDFVEWLLRA-OH
SMILES: CCCCCCCCCCCCCCCC(=O)N[C@@H](CCC(=O)NCCCC[C@H](NC(=O)[C@H](CO)NC(=O)[C@H](CC(=O)O)NC(=O)[C@H](CC(C)C)NC(=O)[C@H](Cc1ccc(O)cc1)NC(=O)[C@H](CCCCN)NC(=O)[C@H](CO)NC(=O)[C@H](Cc1ccc(O)cc1)NC(=O)[C@H](CC(=O)O)NC(=O)[C@H](CO)NC(=O)[C@@H](NC(=O)[C@H](Cc1ccccc1)NC(=O)[C@@H](NC(=O)CNC(=O)[C@H](CCC(N)=O)NC(=O)[C@H](CO)NC(=O)[C@@H](N)Cc1c[nH]cn1)[C@@H](C)O)[C@@H](C)O)C(=O)N[C@@H](C)C(=O)N[C@@H](C)C(=O)N[C@@H](Cc1c[nH]cn1)C(=O)N[C@@H](CC(=O)O)C(=O)N[C@@H](Cc1ccccc1)C(=O)N[C@H](C(=O)N[C@@H](CCC(=O)O)C(=O)N[C@@H](Cc1c[nH]c2ccccc12)C(=O)N[C@@H](CC(C)C)C(=O)N[C@@H](CC(C)C)C(=O)N[C@@H](CCCNC(=N)N)C(=O)N[C@@H](C)C(=O)O)C(C)C)C(=O)O
B2: Compound 1 (peptide)
peptide: H-H[Aib]QGTFTSDYSKYLDSK([γGlu-Palmitoyl])AAHDFVEWLLS-OH
SMILES: CCCCCCCCCCCCCCCC(=O)N[C@@H](CCC(=O)NCCCC[C@H](NC(=O)[C@H](CO)NC(=O)[C@H](CC(=O)O)NC(=O)[C@H](CC(C)C)NC(=O)[C@H](Cc1ccc(O)cc1)NC(=O)[C@H](CCCCN)NC(=O)[C@H](CO)NC(=O)[C@H](Cc1ccc(O)cc1)NC(=O)[C@H](CC(=O)O)NC(=O)[C@H](CO)NC(=O)[C@@H](NC(=O)[C@H](Cc1ccccc1)NC(=O)[C@@H](NC(=O)CNC(=O)[C@H](CCC(N)=O)NC(=O)C(C)(C)NC(=O)[C@@H](N)Cc1c[nH]cn1)[C@@H](C)O)[C@@H](C)O)C(=O)N[C@@H](C)C(=O)N[C@@H](C)C(=O)N[C@@H](Cc1c[nH]cn1)C(=O)N[C@@H](CC(=O)O)C(=O)N[C@@H](Cc1ccccc1)C(=O)N[C@H](C(=O)N[C@@H](CCC(=O)O)C(=O)N[C@@H](Cc1c[nH]c2ccccc12)C(=O)N[C@@H](CC(C)C)C(=O)N[C@@H](CC(C)C)C(=O)N[C@@H](CO)C(=O)O)C(C)C)C(=O)O
B3: Compound 6 (peptide)
peptide: H-HSQGTFTSDYSRYLDSK([γGlu-Palmitoyl])AAEDFVEWLLRA-NH2
SMILES: CCCCCCCCCCCCCCCC(=O)N[C@@H](CCC(=O)NCCCC[C@H](NC(=O)[C@H](CO)NC(=O)[C@H](CC(=O)O)NC(=O)[C@H](CC(C)C)NC(=O)[C@H](Cc1ccc(O)cc1)NC(=O)[C@H](CCCNC(=N)N)NC(=O)[C@H](CO)NC(=O)[C@H](Cc1ccc(O)cc1)NC(=O)[C@H](CC(=O)O)NC(=O)[C@H](CO)NC(=O)[C@@H](NC(=O)[C@H](Cc1ccccc1)NC(=O)[C@@H](NC(=O)CNC(=O)[C@H](CCC(N)=O)NC(=O)[C@H](CO)NC(=O)[C@@H](N)Cc1c[nH]cn1)[C@@H](C)O)[C@@H](C)O)C(=O)N[C@@H](C)C(=O)N[C@@H](C)C(=O)N[C@@H](CCC(=O)O)C(=O)N[C@@H](CC(=O)O)C(=O)N[C@@H](Cc1ccccc1)C(=O)N[C@H](C(=O)N[C@@H](CCC(=O)O)C(=O)N[C@@H](Cc1c[nH]c2ccccc12)C(=O)N[C@@H](CC(C)C)C(=O)N[C@@H](CC(C)C)C(=O)N[C@@H](CCCNC(=N)N)C(=O)N[C@@H](C)C(N)=O)C(C)C)C(=O)O
B4: Compound 2 (peptide)
peptide: H-HSQGTFTSDYSKYLDSK([γGlu-Palmitoyl])AAHDFVEWLLSA-OH
SMILES: CCCCCCCCCCCCCCCC(=O)N[C@@H](CCC(=O)NCCCC[C@H](NC(=O)[C@H](CO)NC(=O)[C@H](CC(=O)O)NC(=O)[C@H](CC(C)C)NC(=O)[C@H](Cc1ccc(O)cc1)NC(=O)[C@H](CCCCN)NC(=O)[C@H](CO)NC(=O)[C@H](Cc1ccc(O)cc1)NC(=O)[C@H](CC(=O)O)NC(=O)[C@H](CO)NC(=O)[C@@H](NC(=O)[C@H](Cc1ccccc1)NC(=O)[C@@H](NC(=O)CNC(=O)[C@H](CCC(N)=O)NC(=O)[C@H](CO)NC(=O)[C@@H](N)Cc1c[nH]cn1)[C@@H](C)O)[C@@H](C)O)C(=O)N[C@@H](C)C(=O)N[C@@H](C)C(=O)N[C@@H](Cc1c[nH]cn1)C(=O)N[C@@H](CC(=O)O)C(=O)N[C@@H](Cc1ccccc1)C(=O)N[C@H](C(=O)N[C@@H](CCC(=O)O)C(=O)N[C@@H](Cc1c[nH]c2ccccc12)C(=O)N[C@@H](CC(C)C)C(=O)N[C@@H](CC(C)C)C(=O)N[C@@H](CO)C(=O)N[C@@H](C)C(=O)O)C(C)C)C(=O)O
B5: Compound 5 (peptide)
peptide: H-H[Aib]QGTFTSDYSKYLDSK([γGlu-Palmitoyl])AAHDFVEWLESA-NH2
SMILES: CCCCCCCCCCCCCCCC(=O)N[C@@H](CCC(=O)NCCCC[C@H](NC(=O)[C@H](CO)NC(=O)[C@H](CC(=O)O)NC(=O)[C@H](CC(C)C)NC(=O)[C@H](Cc1ccc(O)cc1)NC(=O)[C@H](CCCCN)NC(=O)[C@H](CO)NC(=O)[C@H](Cc1ccc(O)cc1)NC(=O)[C@H](CC(=O)O)NC(=O)[C@H](CO)NC(=O)[C@@H](NC(=O)[C@H](Cc1ccccc1)NC(=O)[C@@H](NC(=O)CNC(=O)[C@H](CCC(N)=O)NC(=O)C(C)(C)NC(=O)[C@@H](N)Cc1c[nH]cn1)[C@@H](C)O)[C@@H](C)O)C(=O)N[C@@H](C)C(=O)N[C@@H](C)C(=O)N[C@@H](Cc1c[nH]cn1)C(=O)N[C@@H](CC(=O)O)C(=O)N[C@@H](Cc1ccccc1)C(=O)N[C@H](C(=O)N[C@@H](CCC(=O)O)C(=O)N[C@@H](Cc1c[nH]c2ccccc12)C(=O)N[C@@H](CC(C)C)C(=O)N[C@@H](CCC(=O)O)C(=O)N[C@@H](CO)C(=O)N[C@@H](C)C(N)=O)C(C)C)C(=O)O
B6: Compound 11 (peptide)
peptide: H-H[Aib]QGTFTSDYSKYLDEK([γGlu-Palmitoyl])RAKDFIEWLLS-OH
SMILES: CCCCCCCCCCCCCCCC(=O)N[C@@H](CCC(=O)NCCCC[C@H](NC(=O)[C@H](CCC(=O)O)NC(=O)[C@H](CC(=O)O)NC(=O)[C@H](CC(C)C)NC(=O)[C@H](Cc1ccc(O)cc1)NC(=O)[C@H](CCCCN)NC(=O)[C@H](CO)NC(=O)[C@H](Cc1ccc(O)cc1)NC(=O)[C@H](CC(=O)O)NC(=O)[C@H](CO)NC(=O)[C@@H](NC(=O)[C@H](Cc1ccccc1)NC(=O)[C@@H](NC(=O)CNC(=O)[C@H](CCC(N)=O)NC(=O)C(C)(C)NC(=O)[C@@H](N)Cc1c[nH]cn1)[C@@H](C)O)[C@@H](C)O)C(=O)N[C@@H](CCCNC(=N)N)C(=O)N[C@@H](C)C(=O)N[C@@H](CCCCN)C(=O)N[C@@H](CC(=O)O)C(=O)N[C@@H](Cc1ccccc1)C(=O)N[C@H](C(=O)N[C@@H](CCC(=O)O)C(=O)N[C@@H](Cc1c[nH]c2ccccc12)C(=O)N[C@@H](CC(C)C)C(=O)N[C@@H](CC(C)C)C(=O)N[C@@H](CO)C(=O)O)[C@@H](C)CC)C(=O)O

One test deals with human glucagon receptor (Glucagon-R) (human, UniProt P47871 26-477). Description: cell-based or functional assay.
human glucagon receptor (Glucagon-R), sequence (P47871 26-477): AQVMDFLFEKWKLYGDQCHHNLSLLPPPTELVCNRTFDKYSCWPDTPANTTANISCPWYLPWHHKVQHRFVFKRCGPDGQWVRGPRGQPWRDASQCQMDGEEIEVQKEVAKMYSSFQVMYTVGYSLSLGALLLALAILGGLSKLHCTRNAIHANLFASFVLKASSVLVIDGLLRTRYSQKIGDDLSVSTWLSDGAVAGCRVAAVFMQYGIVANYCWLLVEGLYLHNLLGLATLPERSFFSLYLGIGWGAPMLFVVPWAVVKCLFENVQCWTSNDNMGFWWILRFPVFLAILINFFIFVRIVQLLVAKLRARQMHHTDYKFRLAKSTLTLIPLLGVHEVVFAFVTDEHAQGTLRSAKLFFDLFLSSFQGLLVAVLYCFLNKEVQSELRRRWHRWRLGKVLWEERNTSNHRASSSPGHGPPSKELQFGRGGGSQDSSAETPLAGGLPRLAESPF
Take B1: the “EC50 hGCGR CHO-K1 [nM] (cAMP)” value worked out at 0.35 nM.
Turning to B2, the “EC50 hGCGR CHO-K1 [nM] (cAMP)” value turned out to be 0.9 nM.
Regarding B3, the “EC50 hGCGR CHO-K1 [nM] (cAMP)” value came to 0.46 nM.
In the case of HXQGTFTSDYSKYLDEXAAKDFIEWLLSA (Aib at position 2; Lys 17 K(Hexadecanoyl-isoGlu); C-terminal amide (-NH2)) [Compound 4], the “EC50 hGCGR CHO-K1 [nM] (cAMP)” value is 1.56 nM.
Still for that read-out and setting: then B4, with 0.31 nM; and B5, with 0.46 nM.
Regarding B6, the “EC50 hGCGR CHO-K1 [nM] (cAMP)” value was found to be 0.61 nM.

In the next test the target is human glucagon-like peptide 1 receptor (GLP-1R) (human, UniProt P43220 24-463). Briefly: cell-based or functional assay.
Regarding B1, the “EC50 hGLP-1R CHO-K1 [nM] (cAMP)” value is 0.91 nM and the “Ratio GLP-1/Glucagon (EC50 hGLP-1R / EC50 hGCGR)” value stood at 2.6 ratio.
B2: the “EC50 hGLP-1R CHO-K1 [nM] (cAMP)” value came out at 0.54 nM and the “Ratio GLP-1/Glucagon (EC50 hGLP-1R / EC50 hGCGR)” value is 0.6 ratio.
For B3, in that order: 0.35 nM and 0.76 ratio.
The corresponding values for HXQGTFTSDYSKYLDEXAAKDFIEWLLSA (Aib at position 2; Lys 17 K(Hexadecanoyl-isoGlu); C-terminal amide (-NH2)) [Compound 4] are 0.38 nM and 0.24 ratio.
With B4, the “EC50 hGLP-1R CHO-K1 [nM] (cAMP)” value came to 0.77 nM and the “Ratio GLP-1/Glucagon (EC50 hGLP-1R / EC50 hGCGR)” value is 2.48 ratio.
As for B5, the “EC50 hGLP-1R CHO-K1 [nM] (cAMP)” value was 0.16 nM and the “Ratio GLP-1/Glucagon (EC50 hGLP-1R / EC50 hGCGR)” value was found to be 0.35 ratio.
On to B6, for which the “EC50 hGLP-1R CHO-K1 [nM] (cAMP)” value turned out to be 0.64 nM and the “Ratio GLP-1/Glucagon (EC50 hGLP-1R / EC50 hGCGR)” value came out at 1.05 ratio.

In the next test the target is T1, endogenous GLP-1 receptor of a murine …. Briefly: cell-based or functional assay.
Consider B1, for which the “EC50 GLP-1R (murine insulinoma cells) [nM] (cAMP)” value (shortened to “EC50 GLP-1R … (cAMP)”) is 1.06 nM.
On the same count and under the same terms, then B2, with 1.47 nM; and B3, with 1.14 nM.
As to HXQGTFTSDYSKYLDEXAAKDFIEWLLSA (Aib at position 2; Lys 17 K(Hexadecanoyl-isoGlu); C-terminal amide (-NH2)) [Compound 4], the “EC50 GLP-1R … (cAMP)” value was 0.95 nM.
For B4, the “EC50 GLP-1R … (cAMP)” value was 1.41 nM.
As for B5, the “EC50 GLP-1R … (cAMP)” value was 0.54 nM.
With B6, the “EC50 GLP-1R … (cAMP)” value turned out to be 1.01 nM.

In a further test the target is endogenous glucagon receptor of primary rat hepatocytes (rat, UniProt P30082 27-485). Briefly: cell-based or functional assay.
endogenous glucagon receptor of primary rat hepatocytes, sequence (P30082 27-485): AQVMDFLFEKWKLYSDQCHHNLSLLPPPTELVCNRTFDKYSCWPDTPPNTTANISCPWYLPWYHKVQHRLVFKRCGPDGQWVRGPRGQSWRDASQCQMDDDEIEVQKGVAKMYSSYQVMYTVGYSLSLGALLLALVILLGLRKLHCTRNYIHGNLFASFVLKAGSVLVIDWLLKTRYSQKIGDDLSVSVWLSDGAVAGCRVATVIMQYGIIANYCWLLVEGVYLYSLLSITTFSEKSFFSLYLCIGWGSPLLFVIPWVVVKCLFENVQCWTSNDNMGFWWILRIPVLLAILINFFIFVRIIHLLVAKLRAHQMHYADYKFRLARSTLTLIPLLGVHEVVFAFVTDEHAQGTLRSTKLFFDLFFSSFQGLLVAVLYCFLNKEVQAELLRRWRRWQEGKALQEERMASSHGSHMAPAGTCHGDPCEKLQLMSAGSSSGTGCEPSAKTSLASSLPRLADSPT
Turning to B1, the “EC50 GLP-1R Rat hepat. [nM] (inhibition of glycogen synthesis)” value was 0.16 nM.
For B3, the “EC50 GLP-1R Rat hepat. [nM] (inhibition of glycogen synthesis)” value came to 2.87 nM.
On the same count and under the same terms, then HXQGTFTSDYSKYLDEXAAKDFIEWLLSA (Aib at position 2; Lys 17 K(Hexadecanoyl-isoGlu); C-terminal amide (-NH2)) [Compound 4], with 0.35 nM; and B4, with 0.43 nM.
B5: the “EC50 GLP-1R Rat hepat. [nM] (inhibition of glycogen synthesis)” value is 0.03 nM.
